Numbering of substitutions follows the chain as printed. Numbers in names are those of the source.
Experiments:
Test in all cases: cell-based or functional assay
[1] = biological target: HIV-1 Env of strain 3103.v3.c10 (HIV-1)
[2] = biological target: HIV-1 Env of strain 3301.v1.c24 (HIV-1)
[3] = biological target: HIV-1 Env of strain 3718.v3.c11 (HIV-1)
[4] = biological target: HIV-1 Env of strain 62357_14_D3_4589 (HIV-1)
[5] = biological target: HIV-1 Env of strain 6540.v4.cl (HIV-1)
[6] = biological target: HIV-1 Env of strain 6545.v4.cl (HIV-1)
[7] = biological target: HIV-1 Env of strain 928-28 (HIV-1)
[8] = biological target: HIV-1 Env of strain C2101.c01 (HIV-1)
[9] = biological target: HIV-1 Env of strain C3347.c11 (HIV-1)
[10] = biological target: HIV-1 Env of strain CNE30 (HIV-1)
[11] = biological target: HIV-1 Env of strain CNE53 (HIV-1)
[12] = biological target: HIV-1 Env of strain Ce0393_C3 (HIV-1)
[13] = biological target: HIV-1 Env of strain Ce2060_G9 (HIV-1)
[14] = biological target: HIV-1 Env of strain Du156.12 (HIV-1)
[15] = biological target: HIV-1 Env of strain Du172.17 (HIV-1)
[16] = biological target: HIV-1 Env of strain Du422.1 (HIV-1)
[17] = biological target: HIV-1 Env of strain P0402_c2_11 (HIV-1)
[18] = biological target: HIV-1 Env of strain PVO.4 (HIV-1)
[19] = biological target: HIV-1 Env of strain RHPA4259.7 (HIV-1)
[20] = biological target: HIV-1 Env of strain TRO.11 (HIV-1)
[21] = biological target: HIV-1 Env of strain WEAU_d15_410_787 (HIV-1)
[22] = biological target: HIV-1 Env of strain WITO4160.33 (HIV-1)
[23] = biological target: HIV-1 Env of strain X2131_C1_B5 (HIV-1)
[24] = biological target: HIV-1 Env of strain ZM109F.PB4 (HIV-1)
[25] = biological target: HIV-1 Env of strain ZM135M.PL10a (HIV-1)
[26] = biological target: HIV-1 Env of strain ZM197M.PB7 (HIV-1)
[27] = biological target: HIV-1 strain 1006_11_C3_1601 envelope (gp120) (HIV-1)
[28] = biological target: HIV-1 strain 1054_07_TC4_1499 envelope (gp120) (HIV-1)
[29] = biological target: HIV-1 strain 211-9 envelope (gp120) (HIV-1)
[30] = biological target: HIV-1 strain 3103.v3.c10 envelope (gp120) (HIV-1)
[31] = biological target: HIV-1 strain 3301.v1.c24 envelope (gp120) (HIV-1)
[32] = biological target: HIV-1 strain 3817.v2.c59 envelope (gp120) (HIV-1)
[33] = biological target: HIV-1 strain 6535.3 envelope (gp120) (HIV-1)
[34] = biological target: HIV-1 strain 6540.v4.c1 envelope (gp120) (HIV-1)
[35] = biological target: HIV-1 strain 6545.v4.c1 envelope (gp120) (HIV-1)
[36] = biological target: HIV-1 strain 6811.v7.c18 envelope (gp120) (HIV-1)
[37] = biological target: HIV-1 strain C3347.c11 envelope (gp120) (HIV-1)
[38] = biological target: HIV-1 strain CAAN5342.A2 envelope (gp120) (HIV-1)
[39] = biological target: HIV-1 strain CAP210.2.00.E8 envelope (gp120) (HIV-1)
[40] = biological target: HIV-1 strain CNE53 envelope (gp120) (HIV-1)
[41] = biological target: HIV-1 strain HIV-16845-2.22 envelope (gp120) (HIV-1)
[42] = biological target: HIV-1 strain P0402_c2_11 envelope (gp120) (HIV-1)
[43] = biological target: HIV-1 strain P1981_C5_3 envelope (gp120) (HIV-1)
[44] = biological target: HIV-1 strain Q769.d22 envelope (gp120) (HIV-1)
[45] = biological target: HIV-1 strain REJO4541.67 envelope (gp120) (HIV-1)
[46] = biological target: HIV-1 strain SC422661.8 envelope (gp120) (HIV-1)
[47] = biological target: HIV-1 strain T250-4 envelope (gp120) (HIV-1)
[48] = biological target: HIV-1 strain T257-31 envelope (gp120) (HIV-1)
[49] = biological target: HIV-1 strain ZM197M.PB7 envelope (gp120) (HIV-1)
[50] = biological target: HIV-1 strain ZM249M.PL1 envelope (gp120) (HIV-1)

B1: NIH45-46^G54Y IgG (antibody, name in Kabat numbering, V domains shown)
VH: QVRLSQSGGQMKKPGESMRLSCRASGYEFLNCPINWIRLAPGRRPEWMGWLKPRYGAVNYARKFQGRVTMTRDVYSDTAFLELRSLTSDDTAVYFCTRGKYCTARDYYNWDFEHWGRGAPVTVSS
VL: EIVLTQSPATLSLSPGETAIISCRTSQSGSLAWYQQRPGQAPRLVIYSGSTRAAGIPDRFSGSRWGADYNLSISNLESGDFGVYYCQQYEFFGQGTKVQVDI
- neutralization IC50 [1]: 0.3 µg/mL
- neutralization IC50 [2]: 0.003 µg/mL
- neutralization IC50 [3]: 0.3 µg/mL
- neutralization IC50 [4]: 0.03 µg/mL
- neutralization IC50 [5]: > 50 µg/mL
- neutralization IC50 [6]: > 50 µg/mL
- neutralization IC50 [7]: 0.12 µg/mL
- neutralization IC50 [8]: 0.09 µg/mL
- neutralization IC50 [9]: 0.011 µg/mL
- neutralization IC50 [10]: 0.099 µg/mL
- neutralization IC50 [11]: 0.006 µg/mL
- neutralization IC50 [12]: 0.036 µg/mL
- neutralization IC50 [13]: 0.021 µg/mL
- neutralization IC50 [14]: 0.007 µg/mL
- neutralization IC50 [15]: > 50 µg/mL
- neutralization IC50 [16]: > 50 µg/mL
- neutralization IC50 [17]: 0.012 µg/mL
- neutralization IC50 [18]: 0.06 µg/mL
- neutralization IC50 [19]: 0.007 µg/mL
- neutralization IC50 [20]: 0.08 µg/mL
- neutralization IC50 [21]: 0.002 µg/mL
- neutralization IC50 [22]: 0.03 µg/mL
- neutralization IC50 [23]: 0.1 µg/mL
- neutralization IC50 [24]: 0.026 µg/mL
- neutralization IC50 [25]: 0.09 µg/mL
- neutralization IC50 [26]: 0.07 µg/mL
- neutralization IC80 [27]: 0.021 µg/mL
- neutralization IC80 [28]: 0.236 µg/mL
- neutralization IC80 [29]: > 50 µg/mL
- neutralization IC80 [30]: 0.81 µg/mL
- neutralization IC80 [31]: 0.014 µg/mL
- neutralization IC80 [32]: > 50 µg/mL
- neutralization IC80 [33]: 0.24 µg/mL
- neutralization IC80 [34]: > 50 µg/mL
- neutralization IC80 [35]: > 50 µg/mL
- neutralization IC80 [36]: 0.059 µg/mL
- neutralization IC80 [37]: 0.052 µg/mL
- neutralization IC80 [38]: 0.27 µg/mL
- neutralization IC80 [39]: > 50 µg/mL
- neutralization IC80 [40]: 0.027 µg/mL
- neutralization IC80 [41]: 2.75 µg/mL
- neutralization IC80 [42]: 0.049 µg/mL
- neutralization IC80 [43]: 0.09 µg/mL
- neutralization IC80 [44]: 0.024 µg/mL
- neutralization IC80 [45]: 0.02 µg/mL
- neutralization IC80 [46]: 0.09 µg/mL
- neutralization IC80 [47]: > 50 µg/mL
- neutralization IC80 [48]: 0.67 µg/mL
- neutralization IC80 [49]: 0.21 µg/mL
- neutralization IC80 [50]: 0.011 µg/mL

B2: NIH45-46^G54W(HC), S28Y(LC) (antibody, V domains shown)
VH: B1 VH with Y55W
VL: B1 VL with S28Y
- IC50, pseudovirus neutralization [1]: 0.181 µg/mL
- IC50, pseudovirus neutralization [2]: 0.001 µg/mL
- IC50, pseudovirus neutralization [4]: 0.015 µg/mL
- IC50, pseudovirus neutralization [7]: 0.045 µg/mL
- IC50, pseudovirus neutralization [8]: 0.044 µg/mL
- IC50, pseudovirus neutralization [9]: 0.007 µg/mL
- IC50, pseudovirus neutralization [10]: 0.082 µg/mL
- IC50, pseudovirus neutralization [11]: 0.006 µg/mL
- IC50, pseudovirus neutralization [12]: 0.046 µg/mL
- IC50, pseudovirus neutralization [13]: 0.014 µg/mL
- IC50, pseudovirus neutralization [14]: 0.003 µg/mL
- IC50, pseudovirus neutralization [15]: 0.015 µg/mL
- IC50, pseudovirus neutralization [16]: 8.47 µg/mL
- IC50, pseudovirus neutralization [17]: 0.01 µg/mL
- IC50, pseudovirus neutralization [18]: 0.014 µg/mL
- IC50, pseudovirus neutralization [19]: 0.001 µg/mL
- IC50, pseudovirus neutralization [20]: 0.02 µg/mL
- IC50, pseudovirus neutralization [21]: 0.008 µg/mL
- IC50, pseudovirus neutralization [22]: 0.015 µg/mL
- IC50, pseudovirus neutralization [23]: 0.031 µg/mL
- IC50, pseudovirus neutralization [24]: 0.013 µg/mL
- IC50, pseudovirus neutralization [25]: 0.049 µg/mL
- IC50, pseudovirus neutralization [26]: 0.074 µg/mL

B3: NIH45-46^G54W (antibody, V domains shown)
VH: B1 VH with Y55W
VL: B1 VL
- IC50, pseudovirus neutralization [1]: 0.2 µg/mL
- IC50, pseudovirus neutralization [2]: 0.001 µg/mL
- IC50, pseudovirus neutralization [4]: 0.02 µg/mL
- IC50, pseudovirus neutralization [7]: 0.06 µg/mL
- IC50, pseudovirus neutralization [8]: 0.04 µg/mL
- IC50, pseudovirus neutralization [9]: 0.001 µg/mL
- IC50, pseudovirus neutralization [10]: 0.052 µg/mL
- IC50, pseudovirus neutralization [11]: 0.001 µg/mL
- IC50, pseudovirus neutralization [12]: 0.013 µg/mL
- IC50, pseudovirus neutralization [13]: 0.005 µg/mL
- IC50, pseudovirus neutralization [14]: 0.001 µg/mL
- IC50, pseudovirus neutralization [15]: 3.65 µg/mL
- IC50, pseudovirus neutralization [16]: > 50 µg/mL
- IC50, pseudovirus neutralization [17]: 0.003 µg/mL
- IC50, pseudovirus neutralization [18]: 0.05 µg/mL
- IC50, pseudovirus neutralization [19]: 0.001 µg/mL
- IC50, pseudovirus neutralization [20]: 0.04 µg/mL
- IC50, pseudovirus neutralization [21]: 0.001 µg/mL
- IC50, pseudovirus neutralization [22]: 0.01 µg/mL
- IC50, pseudovirus neutralization [23]: 0.05 µg/mL
- IC50, pseudovirus neutralization [24]: 0.002 µg/mL
- IC50, pseudovirus neutralization [25]: 0.04 µg/mL
- IC50, pseudovirus neutralization [26]: 0.04 µg/mL

B4: NIH45-46^G54W IgG (antibody, name in Kabat numbering, V domains shown)
VH: B1 VH with Y55W
VL: B1 VL
- neutralization IC50 [1]: 0.2 µg/mL
- neutralization IC50 [2]: < 0.001 µg/mL
- improvement of neutralization potency over NIH45-46 [3]: 2000 fold
- neutralization IC50 [3]: 0.01 µg/mL
- neutralization IC50 [4]: 0.02 µg/mL
- neutralization IC50 [5]: > 50 µg/mL
- neutralization IC50 [6]: 18.9 µg/mL
- neutralization IC50 [7]: 0.06 µg/mL
- neutralization IC50 [8]: 0.04 µg/mL
- neutralization IC50 [9]: < 0.001 µg/mL
- neutralization IC50 [10]: 0.052 µg/mL
- neutralization IC50 [11]: < 0.001 µg/mL
- neutralization IC50 [12]: 0.013 µg/mL
- neutralization IC50 [13]: 0.005 µg/mL
- neutralization IC50 [14]: < 0.001 µg/mL
- neutralization IC50 [15]: 3.65 µg/mL
- neutralization IC50 [16]: > 50 µg/mL
- neutralization IC50 [17]: 0.003 µg/mL
- neutralization IC50 [18]: 0.05 µg/mL
- neutralization IC50 [19]: < 0.001 µg/mL
- neutralization IC50 [20]: 0.04 µg/mL
- neutralization IC50 [21]: < 0.001 µg/mL
- neutralization IC50 [22]: 0.01 µg/mL
- neutralization IC50 [23]: 0.05 µg/mL
- neutralization IC50 [24]: 0.002 µg/mL
- neutralization IC50 [25]: 0.04 µg/mL
- neutralization IC50 [26]: 0.04 µg/mL
- neutralization IC80 [27]: 0.008 µg/mL
- neutralization IC80 [28]: 0.165 µg/mL
- neutralization IC80 [29]: > 50 µg/mL
- neutralization IC80 [30]: 0.56 µg/mL
- neutralization IC80 [31]: 0.004 µg/mL
- neutralization IC80 [32]: > 50 µg/mL
- neutralization IC80 [33]: 0.13 µg/mL
- neutralization IC80 [34]: > 50 µg/mL
- neutralization IC80 [35]: > 50 µg/mL
- neutralization IC80 [36]: 0.033 µg/mL
- neutralization IC80 [37]: 0.028 µg/mL
- neutralization IC80 [38]: 0.21 µg/mL
- neutralization IC80 [39]: > 50 µg/mL
- neutralization IC80 [40]: 0.005 µg/mL
- neutralization IC80 [41]: 2.1 µg/mL
- neutralization IC80 [42]: 0.023 µg/mL
- neutralization IC80 [43]: 0.07 µg/mL
- neutralization IC80 [44]: 0.009 µg/mL
- neutralization IC80 [45]: 0.013 µg/mL
- neutralization IC80 [46]: 0.07 µg/mL
- neutralization IC80 [47]: 44.9 µg/mL
- neutralization IC80 [48]: 0.45 µg/mL
- neutralization IC80 [49]: 0.18 µg/mL
- neutralization IC80 [50]: 0.007 µg/mL

— patent US20130209454A1
